System: Saccharomyces cerevisiae
Assay: transcriptional activation domain activity (GFP:mCherry ratio, weighted mean of sorted bins, harmonized to initial dataset scale) (arbitrary fluorescence ratio units); higher = stronger transcriptional activation
Details: beta-estradiol 1 µM; induction time 4 h
Outline: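 For this assay, yeast diploids with a GFP reporter carried barcoded protein tiles at URA3, each fused to an estradiol-inducible synthetic transcription factor. Induction was a 1:5 dilution into SC with 1 uM beta-estradiol for 4 hours at 30 °C, followed by sorting into 8 bins by GFP:mCherry ratio and barcode sequencing. Tiles under 50 reads were dropped, and activation activity was calculated as the read-weighted mean of bin median fluorescence, averaged across barcodes and linearly mapped onto the initial dataset scale.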

With “SSSSRGKGGKEKGKGKVAGEGDGDGEEEQGEQQQQQQTSLVEAVARARDACRL” the “transcriptional activation domain activity” value was 27200.
With “FPYFPYFPYFPYFLYFLFSLFSLLSLLPLLLYFLHPFLFLTCFWFSKLACFLS” the “transcriptional activation domain activity” value was 51400.
In the case of “GMCVCTYRLHRCSHVKSRGRRFLCLHVLLCDVMMGPLTEWWCPLLRMMVKVYL”, the “transcriptional activation domain activity” value is reported as 47800.
With “YNGYHKVGEHYLLCKAVVDHKKKSSIHVHLIEVQPTVFNILEGLLYPKILFSS” the “transcriptional activation domain activity” value was 53500.
In the case of “MSNGFFLGLWVLIKRPFFFFFFHLFVMHGVLGGCWDLLVGFVCLHRGFWFLFW”, the “transcriptional activation domain activity” value is reported as 70700.
For “GIFCSPFFPFFVPLFCPPFPPPSLFPPLCISLPLSMPNSLLFLFTILYEYAGC”, the “transcriptional activation domain activity” value was 56200.
For “KALLLLLRIAHLQFNKIPLTLIFDQFLNVAILCDMYSKGNEKYLLISWVFHRE”, the “transcriptional activation domain activity” value was 28800.
For “ILGKLLYHMILLYLCVDLSLSEQIEHLSAATHLTMILYRLGGKDFIPTNLYIN”, the “transcriptional activation domain activity” value was 45000.
For “FLHLATLKEKMGNRFRAKQSDISPEINLVLLGVLTLTVRFNPTLVSYVTTLRT”, the “transcriptional activation domain activity” value was 50600.
In the case of “DARRLLSCVRMGFAFYASGCMSTSLILFFSFCLLLPPILTGYQILWLLCIILP”, the “transcriptional activation domain activity” value is reported as 68400.
“ERSILWRAYLRLISHINSIYKIRIAYEWTEDFVIKYLWSAAGYCLISVPVLLT” was tested, and the “transcriptional activation domain activity” value was 54200.
In the case of “LHFMYVVAIKDRKAWVGYSAAELCMVGFWNLIVVWLKLLVPWRFFRLWALADG”, the “transcriptional activation domain activity” value is reported as 61900.
In the case of “MRTLKLCSSCKHLGPEIYAFGWVCTNLSCQILFRHSGFHSLKGVTYSTSFLAQ”, the “transcriptional activation domain activity” value is reported as 57400.
With “RVPWSSAISKRLQTYHEMLQSFPFVWRMIKDVLGLKSCRYLLVLYLFCEAVTS” the “transcriptional activation domain activity” value was 62000.
“PAHVIFDVVIVCAGYFAREAFEEVVRMTTMCAVGPVFVVQALVRAGKVCTGIG” was tested, and the “transcriptional activation domain activity” value was 76300.
With “MDLVLCIGLFGHIPYHLQYSLPFVSFFFSHNIVHYSEMHYFGVVNSGILWLGF” the “transcriptional activation domain activity” value was 63300.
In the case of “PLALDFPPLGHMVELVDVVMWLCGRAGELPMWPQKIFNFNWIELSMKYPHHFI”, the “transcriptional activation domain activity” value is reported as 50500.
With “STSIRWEIFYARFFIMMLFYTIVGLFLTIACFSLRYHLFIWTVFSPKLLFFFV” the “transcriptional activation domain activity” value was 48800.
For “PSLYLVTFFRDSLEMIMISLKYFRYEAHKVVNILPILPDLYTIVRTLVNKCVR”, the “transcriptional activation domain activity” value was 43700.
For “DEEQDRSHRHRRSRSASPRRHKSGNEARERDRHGDDHSRRHRRRRSHERSHRH”, the “transcriptional activation domain activity” value was 48700.
With “AQEAIAEQGEERGDGAGQEKAPVGKRAAEDPAAAPRGSAKRKADKGERSGAEQ” the “transcriptional activation domain activity” value was 7850.
In the case of “WLNGCFLLVGHIIFQLVMCYQLAQIIRGIVQMYGHLWISNDWHCLWITWLILF”, the “transcriptional activation domain activity” value is reported as 63600.
“DRDRSRSRSRSRSKSPRRHRRSSRSPRRRGADKSPERAAPAASSKQAEARPRC” was tested, and the “transcriptional activation domain activity” value was 31100.
For “SLDALHIIFVAHSLYWYLVLNYITPLALLSIVWSFHLQIAINIMLIASVQTAY”, the “transcriptional activation domain activity” value was 37300.
“SMRAPLFTELGLLPLRFRRLILALRYLSYLITLPHEHYASAALQDAFDLYSQG” was tested, and the “transcriptional activation domain activity” value was 24100.
“MIMGKVVGSIPTVSNFLPFSFLFFFSSFLFSSLSSCEVVCLIISFFSFFHWLS” was tested, and the “transcriptional activation domain activity” value was 55200.
In the case of “VPLHISLPSLVIDVRVIGEPGLYFADLGCCYCLDAELQITHIHGLFLHVVFIL”, the “transcriptional activation domain activity” value is reported as 56600.
In the case of “MVFIIFFAAFYTLFLYHSSLFFTLPFASIFFLLFFVRFIFFISVFLLFFLLGL”, the “transcriptional activation domain activity” value is reported as 51100.
For “MVVFLFSFRVWVLLWICKISFINFVPMSTCRGLMVVRLRLNQTWGIRSLVPWL”, the “transcriptional activation domain activity” value was 29600.
With “GPSAEATPPSTEVKKKRQYRKRQITAEGGEAENGEASSAVPKPKRVRKKKDPP” the “transcriptional activation domain activity” value was 38300.
In the case of “EAKAEEAAPTEAPAADAPAAEPAAEASATEEAKPAEAAKEEKKEDRPKSPSLL”, the “transcriptional activation domain activity” value is reported as 8420.
In the case of “MDAVSDAARESPDSERGAESEAKRRKVRKGTRSCWECKRRKIRCSFSTASDSV”, the “transcriptional activation domain activity” value is reported as 38000.
For “MFENFSLLLSSLCFFPLSLFFCFFFLFPLSSFFFFVFLLAFCFCCFRFSLFFF”, the “transcriptional activation domain activity” value was 18100.
With “DATPAAPANGNDGFHEVQHRGRGRGGFQGEGRGGGGYRGRGGRGGEGRGRGRG” the “transcriptional activation domain activity” value was 25800.
“LREGGVLAVDGTSVGSVEVIYSYSIVVHTRITFRVVARVGRCLVVCLVRWDFY” was tested, and the “transcriptional activation domain activity” value was 38200.
With “ELLLLWYIYFLGIQYAQDFCQYKKMLILTEDTMWGWDLYSFYNSIVFHGTGVP” the “transcriptional activation domain activity” value was 75000.
In the case of “SLLEELTMRLLETDESHIKKIKDLSRFVNMIILRLFATGRRMSIFRSLFALLL”, the “transcriptional activation domain activity” value is reported as 62600.
With “MNVLTFFYVVGGVFFFFTISFALPGGYIVLDLSYYNHIICATYLLLLFEFMFY” the “transcriptional activation domain activity” value was 54200.
For “EPHNDIILDLLFTLAYWHALAKLRLHTDFTLSKLEEVTMFLGRQLRYLRRVTC”, the “transcriptional activation domain activity” value was 51800.
In the case of “VVPYYCLFVFFPFYSCVLVRLAGNCHSCLIIALFFLILISGRSFFFFFFFFFF”, the “transcriptional activation domain activity” value is reported as 14200.
For “MVLRYRLSRSFPTLFIHVQLVLQSLRMGQVSLCMVVQIVWEYIYFWLLGNIAW”, the “transcriptional activation domain activity” value was 65600.
“SRLDAIEEEEEDLAAKNEGSTSNIEVDEIDIKSRDLKVGDIVKLGKNQRVPAD” was tested, and the “transcriptional activation domain activity” value was 39600.
“MRGFYYYLFCLFAEFGIHGVLFHGGFFLLLFFFLSSSLWLALTRFRWPFPFVF” was tested, and the “transcriptional activation domain activity” value was 57800.
In the case of “MITTLYHHVRYILIRQPRRPVSLLDQPAVLNYLYVLLYHTIVTFNILTPAVYW”, the “transcriptional activation domain activity” value is reported as 49600.
In the case of “DGGDGDDGSGGEVERAGKSGRAKREGKRGAEEEEEERGDGRAARKTAEKRKKR”, the “transcriptional activation domain activity” value is reported as less than 6570.
With “PFRIGRIVAWISYGIHQVGQWGILAKVQRAKEEWSNTYRWWNWSMVYLNGFML” the “transcriptional activation domain activity” value was 59700.
In the case of “RMIGLPILLWLGTLTCQIGLLVLLRSVVFGQTNSGNVLPWGLGFWALTISTNI”, the “transcriptional activation domain activity” value is reported as 71800.
“MVLLTTLSKKTTIVTVLCSTVINMGKFGFTRHNHRCMRTGALLCLLLFLAYHF” was tested, and the “transcriptional activation domain activity” value was 42800.
For “VKPRPLPLPVLIAKALREKGLVYFFRSVRVSGSGTAEVVRGKWYMNFLPTLAR”, the “transcriptional activation domain activity” value was 73200.
With “MIHSAIIAWYCVFGLVFLLIVICIFHQFSSHRSSPWYFIQNWTRAFGFLSYIL” the “transcriptional activation domain activity” value was 66700.
“KQYCVRPNSGRIDPGKEVEVQVLLQAMKEDPPLDAKCRDKFLVQSVAVSADKE” was tested, and the “transcriptional activation domain activity” value was 64500.
“GRRGSKAVPGEVSEAEANGDAPQTEATPAPESDDAAKPKKKKKSKAARKAKKA” was tested, and the “transcriptional activation domain activity” value was 36100.
In the case of “MVGLVGFWVLFLFFLCPFLFSCPLPLPPLRPSLYIFQISYGSFFFLLFFSIFF”, the “transcriptional activation domain activity” value is reported as 62300.
In the case of “MGLWARFICFVIVCFQITFLYCLLSFSPSFLDLQKTQPLFFTFFFFLLLSLFP”, the “transcriptional activation domain activity” value is reported as 60400.
“MGCICVILARCYCQTLNHFLTVLLLFRSVIFVLFLLFHFFVFVYVLFFFSFII” was tested, and the “transcriptional activation domain activity” value was 42000.
In the case of “EGTGYITVSSGTRYVRLVGARGEEGEGVFGGGRRRRVEVVDFSRARVRAAQIG”, the “transcriptional activation domain activity” value is reported as 49000.
In the case of “KKGREDMGNERKGNDMEGREGEKRGRKGKREGGGKGGKGGEKQREGRTGERGR”, the “transcriptional activation domain activity” value is reported as 21800.
For “ESAPAAEDKPAEETKPAEAEEAPKAEEKKEEVKPIEEGHLNHKAQGLSFPKNL”, the “transcriptional activation domain activity” value was less than 6570.
With “AAEPAPEPVVEKAPAPKKRAGRQPKAETVVEDAPAPKKRGRGARKSEPAAVAE” the “transcriptional activation domain activity” value was 21000.
In the case of “QSPPPAKKAKTAAGGRGKKVKPEPESGSEAEAKPEPVASKRGRVKKPAKAEQE”, the “transcriptional activation domain activity” value is reported as 14800.
For “LLECREDYINNNIRYCDDNKILLKSMIQMFVDLIPFSDKFLGLIFHIVPSFMH”, the “transcriptional activation domain activity” value was 44700.
